Reference: US20210188909A1 (SANFORD BURNHAM PREBYS MEDICAL DISCOVERY INSTITUTE, published 2021)
Ends that are not written are not given here.

B1: T7 phage displaying the TT1 peptide CKRGARSTC (SEQ ID NO: 3) (peptide)
peptide: CKRGARSTC
notes: The phage protein it is fused to is not described; also called TT1 phage; TT phage
B2: T7 phage displaying CARGKRSLC (SEQ ID NO: 184) (peptide)
peptide: CARGKRSLC
modifications: not fully specified (bridges); cysteine pairing not given here; also: displayed on T7 phage
notes: also called RGXRS-displaying phage
B3: T7 phage displaying GRGGRSRKLAAALE (SEQ ID NO: 161) (peptide)
peptide: GRGGRSRKLAAALE
notes: the C-terminal KLAAALE element is encoded by the phage genomic DNA; also called RGXRS-displaying phage
B4: T7 phage displaying CKRGNRSVC (SEQ ID NO: 178) (peptide)
peptide: CKRGNRSVC
modifications: not fully specified (bridges); cysteine pairing not given here; also: displayed on T7 phage
notes: as for B2
B5: T7 phage displaying CKRGSRSSC (SEQ ID NO: 181) (peptide)
peptide: CKRGSRSSC
modifications: not fully specified (bridges); cysteine pairing not given here; also: displayed on T7 phage
notes: as for B2
B6: T7 phage displaying CQRGTRSRC (SEQ ID NO: 182) (peptide)
peptide: CQRGTRSRC
modifications: not fully specified (bridges); cysteine pairing not given here; also: displayed on T7 phage
notes: as for B2
B7: T7 phage displaying CTRGSRSKC (SEQ ID NO: 177) (peptide)
peptide: CTRGSRSKC
modifications: not fully specified (bridges); cysteine pairing not given here; also: displayed on T7 phage
notes: as for B2
B8: T7 phage displaying CVRGGRARC (SEQ ID NO: 183) (peptide)
peptide: CVRGGRARC
modifications: not fully specified (bridges); cysteine pairing not given here; also: displayed on T7 phage
notes: carries RGGRA rather than RGXRS
B9: T7 phage displaying CARGARTKC (SEQ ID NO: 176) (peptide)
peptide: CARGARTKC
modifications: not fully specified (bridges); cysteine pairing not given here; also: displayed on T7 phage
notes: carries RGART rather than RGXRS
B10: T7 phage displaying RMRRIDR (SEQ ID NO: 190) (peptide)
peptide: RMRRIDR
notes: also called phage clone selected on NRP-1 b1b2 domain
B11: T7 phage displaying SGVSRDR (SEQ ID NO: 191) (peptide)
peptide: SGVSRDR
notes: as for B10
B12: T7 phage displaying SMNEVRKR (SEQ ID NO: 192) (peptide)
peptide: SMNEVRKR
notes: as for B10
B13: T7 phage displaying SRLGRMR (SEQ ID NO: 193) (peptide)
peptide: SRLGRMR
notes: as for B10
B14: synthetic TT1 Peptide CKRGARSTC (SEQ ID NO: 3), cyclic (peptide)
peptide: CKRGARSTC
modifications: also: cyclic (CycTT1), ring type not given here, used labeled and unlabeled, label and position not given here
notes: Free synthetic peptide used in fluorescence polarization assays; also called CycTT1; cyclic TT1 Peptide
B15: uPA-treated T7 phage displaying the TT1 peptide (peptide)
peptide: CKRGAR
modifications: not fully specified
notes: not shown: T7 phage capsid (display carrier)

What follows are binders tested against T1, BSA (UniProt P02769 25-607) (assay: T7 phage clone binding to protein-coated magnetic beads).
T1 construct: Control protein on beads
T1 sequence (P02769 25-607 limits assumed): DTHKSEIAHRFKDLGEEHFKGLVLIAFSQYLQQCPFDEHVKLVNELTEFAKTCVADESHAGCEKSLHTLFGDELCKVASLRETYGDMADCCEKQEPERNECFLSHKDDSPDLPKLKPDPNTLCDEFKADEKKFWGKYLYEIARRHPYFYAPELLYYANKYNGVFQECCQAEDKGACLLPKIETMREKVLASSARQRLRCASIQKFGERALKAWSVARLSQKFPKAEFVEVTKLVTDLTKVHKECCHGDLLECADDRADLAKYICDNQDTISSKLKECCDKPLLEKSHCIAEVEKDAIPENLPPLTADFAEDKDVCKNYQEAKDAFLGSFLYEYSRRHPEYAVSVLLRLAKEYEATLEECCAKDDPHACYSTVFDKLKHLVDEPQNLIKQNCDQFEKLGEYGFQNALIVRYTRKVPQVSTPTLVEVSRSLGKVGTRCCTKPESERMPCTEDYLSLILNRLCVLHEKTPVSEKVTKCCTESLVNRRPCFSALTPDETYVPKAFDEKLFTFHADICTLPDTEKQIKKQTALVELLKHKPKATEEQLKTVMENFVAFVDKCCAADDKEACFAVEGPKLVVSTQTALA
B1: no binding.
B2: no binding.
B3: no binding.
RKRGGRS (also called RGXRS-displaying phage) [T7 phage displaying RKRGGRS (SEQ ID NO: 166)]: no binding.
B4: no binding.
B5: no binding.
B6: no binding.
B7: no binding.

Each binder was assayed against T2, ligand-binding b1b2 domain of the cell and tissue penetration receptor NRP-1 (UniProt O14786 273-586, limits assumed) in the same assay as above.
T2 construct: domain: b1b2; Coated on magnetic beads; also called NRP-1 b1b2; NRP-1 b1b2 domain
T2 sequence (looked up): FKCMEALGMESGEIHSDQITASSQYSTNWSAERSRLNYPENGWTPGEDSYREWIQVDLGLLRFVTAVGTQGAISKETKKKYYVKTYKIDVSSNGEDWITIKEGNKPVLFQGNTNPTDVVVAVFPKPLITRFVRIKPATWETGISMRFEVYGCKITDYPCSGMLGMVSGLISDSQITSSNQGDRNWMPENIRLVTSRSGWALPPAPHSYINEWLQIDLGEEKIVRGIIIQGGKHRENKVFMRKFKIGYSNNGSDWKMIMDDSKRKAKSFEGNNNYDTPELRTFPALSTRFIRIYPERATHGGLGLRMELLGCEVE
B1: no binding.
B8: no binding.
B2: no binding.
B3: no binding.
RKRGGRS (also called RGXRS-displaying phage) [T7 phage displaying RKRGGRS (SEQ ID NO: 166)]: no binding.
B4: no binding.
B5: no binding.
B6: no binding.
B7: no binding.
B9: no binding.

The binders below were run against T3, recombinant 6x-His-tagged p32 protein (gC1qR/p32) (UniProt Q07021 74-282) (assay: T7 phage binding to immobilized p32; reference LyP-1-displaying phage).
T3 construct: Predominantly (>97%) a trimer by sedimentation velocity; also called gC1q/p32 receptor; recombinant p32
T3 sequence (looked up): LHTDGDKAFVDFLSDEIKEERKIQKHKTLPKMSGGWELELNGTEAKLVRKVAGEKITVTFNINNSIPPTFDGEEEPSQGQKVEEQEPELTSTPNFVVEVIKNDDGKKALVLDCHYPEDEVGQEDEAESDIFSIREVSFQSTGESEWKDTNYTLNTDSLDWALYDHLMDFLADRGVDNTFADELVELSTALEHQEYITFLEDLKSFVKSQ
For B1, the “fold stronger phage binding than the LyP-1 peptide” value was ~15 fold.

The binders below were run against T3, recombinant 6x-His-tagged p32 protein … (assay: T7 phage clone binding to immobilized p32 (FIG. 3)).
B10: no binding.
B11: no binding.
B12: no binding.
B13: no binding.

Each binder was assayed against T4, NRP-1 (control protein in the fluorescence polarization assay) (UniProt O14786 273-586, limits assumed) (assay: fluorescence polarization assay with synthetic peptide, NRP-1 as control protein).
T4 construct: also called neuropilin-1
T4 sequence (looked up): T2 sequence (looked up)
B14: no binding.

These binders were tested against T2, ligand-binding b1b2 domain of the cell … (assay: uPA-treated T7 phage binding to NRP-1 b1b2; reference untreated phage).
In the case of B15, the “fold enhancement of binding” value is reported as 180 fold.
